Source: PMC2174279 (The Journal of Cell Biology, 2000)

Assays:
Assay in all cases: two-hybrid
[1] = biological target: T1, peptide PBS2 (NKPLPPLPVA), LexA bait (S. cerevisiae)
T1 peptide: NKPLPPLPVA

[2] = biological target: T2, peptide PRP2 (PPPYQAPHPP), LexA bait
T2 peptide: PPPYQAPHPP

[3] = biological target: T3, peptide PRP1 (QPDHPPPSPP), LexA bait
T3 peptide: QPDHPPPSPP

B1: SH3 domain of Sho1p (176-367) (domain or fragment)
chain: not shown
- LacZ expression (two-hybrid) [1]: 190 Miller units

B2: Myo5p-SH3-AD (1020-1219) (domain or fragment)
chain: NKAATRRSVPNPASTLTASQSNARPSPPTAATRATPAATPAAAAMGSGRQANIPPPPPPPPPSSKPKEPMFEAAYDFPGSGSPSELPLKKGDVIYITREEPSGWSLGKLLDGSKEGWVPTAYMKPHSGNNNIPTPPQNRDVPKPVLNSVQHDNTSANVIPAAAQASLGDGLANALAARANKMRLESDDEEANEDEEEDDW
- LacZ expression (two-hybrid) [2]: 255 Miller units
- LacZ expression (two-hybrid) [3]: 406 Miller units
